Test system: CCCCCCCCCC(=O)CC(=O)N[C@H]1CCOC1=O
Assay: purified protein
Type: biochemical, Chryseobacterium sp. StRB126
Conditions: bicine 2.5 mM pH 8.0, 50 mM NaCl, 0.2 mM ZnCl2, 0.5% DMSO, 30 °C, substrate 0.2-2 mM

AidC (Chryseobacterium sp. StRB126)
Km: 0.56 ± 0.01 mM
kcat: 250 ± 18 s⁻¹

From paper PMC10536470, “Reducing the virulence of Pseudomonas aeruginosa by using multiple quorum-quenching enzymes” (Journal of Industrial Microbiology & Biotechnology, 2023)
